{"source": "paper PMC8939769", "about": "(2022)", "binders": {"B1": {"name": "AZD8895 (tixagevimab) (antibody, V domains shown)", "VH": "QMQLVQSGPEVKKPGTSVKVSCKASGFTFMSSAVQWVRQARGQRLEWIGWIVIGSGNTNYAQKFQERVTITRDMSTSTAYMELSSLRSEDTAVYYCAAPYCSSISCNDGFDIWGQGTMVTVSS", "VL": "not shown"}}, "biological_target": "SARS-CoV-2 spike protein receptor binding domain (RBD) (SARS-CoV-2, UniProt P0DTC2 319-541)", "test": "ELISA"}
{"binder": "B1", "values": [{"measurement": "IC50", "result": 0.0477, "unit": "µg/mL"}]}
